Reference: PMC4449183, “Structural-Functional Analysis Reveals a Specific Domain Organization in Family GH20 Hexosaminidases” (PLoS ONE, 2015)

T1: Construct A (residues 40–528) of B. bifidum lacto-N-biosidase, GH20b-GH20-α (Bifidobacterium bifidum (strain DSM …, UniProt B3TLD6))
T1 chain: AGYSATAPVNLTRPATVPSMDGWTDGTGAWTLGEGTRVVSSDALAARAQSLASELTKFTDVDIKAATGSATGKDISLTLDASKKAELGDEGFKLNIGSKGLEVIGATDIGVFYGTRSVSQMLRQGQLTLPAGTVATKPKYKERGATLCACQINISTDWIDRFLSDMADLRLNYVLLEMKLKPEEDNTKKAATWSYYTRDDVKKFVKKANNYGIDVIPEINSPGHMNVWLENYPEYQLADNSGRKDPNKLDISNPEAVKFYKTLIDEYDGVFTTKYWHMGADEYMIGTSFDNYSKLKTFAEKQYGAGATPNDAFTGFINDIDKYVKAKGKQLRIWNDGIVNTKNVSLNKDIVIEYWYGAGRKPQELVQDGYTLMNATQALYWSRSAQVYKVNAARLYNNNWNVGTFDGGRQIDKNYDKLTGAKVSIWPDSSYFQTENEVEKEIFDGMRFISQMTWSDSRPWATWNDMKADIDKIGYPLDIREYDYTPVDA

B1: Construct A (residues 40–528) of B. bifidum lacto-N-biosidase, GH20b-GH20-α (domain or fragment, Bifidobacterium bifidum, UniProt B3TLD6 40-528, looked up)
chain: AGYSATAPVNLTRPATVPSMDGWTDGTGAWTLGEGTRVVSSDALAARAQSLASELTKFTDVDIKAATGSATGKDISLTLDASKKAELGDEGFKLNIGSKGLEVIGATDIGVFYGTRSVSQMLRQGQLTLPAGTVATKPKYKERGATLCACQINISTDWIDRFLSDMADLRLNYVLLEMKLKPEEDNTKKAATWSYYTRDDVKKFVKKANNYGIDVIPEINSPGHMNVWLENYPEYQLADNSGRKDPNKLDISNPEAVKFYKTLIDEYDGVFTTKYWHMGADEYMIGTSFDNYSKLKTFAEKQYGAGATPNDAFTGFINDIDKYVKAKGKQLRIWNDGIVNTKNVSLNKDIVIEYWYGAGRKPQELVQDGYTLMNATQALYWSRSAQVYKVNAARLYNNNWNVGTFDGGRQIDKNYDKLTGAKVSIWPDSSYFQTENEVEKEIFDGMRFISQMTWSDSRPWATWNDMKADIDKIGYPLDIREYDYTPVDA
notes: Lacto-N-biosidase (LnbB), Bifidobacterium bifidum, residues 40-528 (GH20b and GH20 domains with the extra α-helix); synthetic codon-optimised gene in pET28a+ (NdeI/Bpu1102); Mainly dimeric in solution by gel filtration; theoretical mass 57 kDa; also called GH20b-GH20-α construct; source: E. coli BL21 (DE3) star, purified (Ni2+ HiTrap chelating column, Superdex 200)

Assays:
[1] = target: B1; test: cell-based or functional assay
[2] = target: T1, Construct A (residues 40–528) of B. …; test: SEC co-elution with SDS-PAGE, plus activity complementation assay
[3] = target: the molecule itself; test: SEC; single purified proteins on XK16/60 Superdex 200 in buffer A (Na2HPO4 20 mM, NaCl 150 mM, pH 7.5)

| hydrolytic activity on p-nitrophenyl β-lacto-N-bioside of 50 nM construct A with 25 nM-500 nM construct F (pH 4.5, 30°C), relative to the full length enzyme; levels off at a molar ratio of 1:6 [1] | binding result [2] | Binder | stoichiometry N [3] |
| --- | --- | --- | --- |
| 11% | binds | Construct F (546–776) of B. bifidum lacto-N-biosidase, the single lectin domain (domain or fragment, Bifidobacterium bifidum, UniProt B3TLD6 546-776, looked up) LITTPDGYYQMKDTVSGKCLALFTGSKHLDVVTQVGARPELRNCADVSVGQDQRNTANERNTQKWQIRADKDGKYTISPALTQQRLAIATGNEQNIDLETHRPAAGTVAQFPADLVSDNALFTLTGHMGMSATVDSKTVNPASPSKITVKVRAASNANTGDVTVTPVVPEGWEIKPGSVSLKSIPAGKAAIAYFNVVNTTGTGDATVQFKLTNTKTGEELGTTSVALTGSL | – |
| – | – | B1 | 2 |
